The target in the assay is GST-XNRL (Xenopus laevis). Briefly: pull-down; Glutathione-Sepharose-bound GST-XNRL (or GST alone) incubated with affinity purified MYC fusion proteins in binding buffer (0.1% Triton X-100, 50 mM HEPES pH 7.5, 150 mM NaCl, 1% glycerol, 1.5 mM MgCl2, 5 mM EGTA) overnight at 4°C, washed three times; anti-MYC Western blot, bands quantified by Image J (retained/input, normalised to MYC-XOTX2); two independent experiments. Background: Immunoblotting shows a protein as a band on a membrane.

Take MYC-XOTX5b (natural protein): the fold binding relative to MYC-XOTX2 (retained/input ratio) turned out to be 2.4 fold.

The values above are taken from article PMC1929070.
